Experiments:
[1] = target: untagged YsaL (YE3555); assay: SPR; refolded YsaN
[2] = target: untagged YsaL (YE3555); assay: SPR
[3] = target: untagged YsaL (YE3555); assay: SPR; remark: listed apart in the source
[4] = target: untagged YsaL (YE3555); assay: SPR; remark: listed apart in the source

B1: YsaNflr-His (full length YsaN, refolded) (enzyme)
chain: MNLFDSCAHPSRIHGCLLEAPLHGVFIGEICLIERDLCQPEVIAKAQVVGFKEGQTILSLIGRAQGLTREVVIRPTGQPFVFEMGEHLAGKIYNAAGEEVGVLSNATASSEPLFTTLCRVDNPPVSVNLRRPVTTPLVTGVRAIDGLLTCGQGQRMGIFAAAGSGKTSLMSMIMNHAVADICVIALIGERGREVTEFIHELQTSPRAAQTILVYATSDSPAVERCNAALLATAMAEYFRDQGKDVLLFVDSMTRYARALRDVALAAGELPARRGYPASVFEQLPLLLERPGALQHGSITAFYTVLLESEEESDPIGDEIRSIIDGHIYLSAQLAGRGHYPAIDILHSISRVFSKVTTPQHRQDAAKTRDMLGRLAQIQLYLDLGEYQRGENTDNDHALDNRDVIEGFLQQAMEEPGEFSTTLNQLRELAN
Kd [1]: 42 nM

B2: YsaNΔ(426–430)-His (domain or fragment)
chain: MNLFDSCAHPSRIHGCLLEAPLHGVFIGEICLIERDLCQPEVIAKAQVVGFKEGQTILSLIGRAQGLTREVVIRPTGQPFVFEMGEHLAGKIYNAAGEEVGVLSNATASSEPLFTTLCRVDNPPVSVNLRRPVTTPLVTGVRAIDGLLTCGQGQRMGIFAAAGSGKTSLMSMIMNHAVADICVIALIGERGREVTEFIHELQTSPRAAQTILVYATSDSPAVERCNAALLATAMAEYFRDQGKDVLLFVDSMTRYARALRDVALAAGELPARRGYPASVFEQLPLLLERPGALQHGSITAFYTVLLESEEESDPIGDEIRSIIDGHIYLSAQLAGRGHYPAIDILHSISRVFSKVTTPQHRQDAAKTRDMLGRLAQIQLYLDLGEYQRGENTDNDHALDNRDVIEGFLQQAMEEPGEFSTTLNQL
Kd [2]: 114 nM

B3: YsaNΔ(411–430)-His (domain or fragment)
chain: MNLFDSCAHPSRIHGCLLEAPLHGVFIGEICLIERDLCQPEVIAKAQVVGFKEGQTILSLIGRAQGLTREVVIRPTGQPFVFEMGEHLAGKIYNAAGEEVGVLSNATASSEPLFTTLCRVDNPPVSVNLRRPVTTPLVTGVRAIDGLLTCGQGQRMGIFAAAGSGKTSLMSMIMNHAVADICVIALIGERGREVTEFIHELQTSPRAAQTILVYATSDSPAVERCNAALLATAMAEYFRDQGKDVLLFVDSMTRYARALRDVALAAGELPARRGYPASVFEQLPLLLERPGALQHGSITAFYTVLLESEEESDPIGDEIRSIIDGHIYLSAQLAGRGHYPAIDILHSISRVFSKVTTPQHRQDAAKTRDMLGRLAQIQLYLDLGEYQRGENTDNDHALDNRDVIEGFLQQ
Kd [3]: 260 nM

B4: YsaNΔ(1–5)-His (domain or fragment)
chain: SCAHPSRIHGCLLEAPLHGVFIGEICLIERDLCQPEVIAKAQVVGFKEGQTILSLIGRAQGLTREVVIRPTGQPFVFEMGEHLAGKIYNAAGEEVGVLSNATASSEPLFTTLCRVDNPPVSVNLRRPVTTPLVTGVRAIDGLLTCGQGQRMGIFAAAGSGKTSLMSMIMNHAVADICVIALIGERGREVTEFIHELQTSPRAAQTILVYATSDSPAVERCNAALLATAMAEYFRDQGKDVLLFVDSMTRYARALRDVALAAGELPARRGYPASVFEQLPLLLERPGALQHGSITAFYTVLLESEEESDPIGDEIRSIIDGHIYLSAQLAGRGHYPAIDILHSISRVFSKVTTPQHRQDAAKTRDMLGRLAQIQLYLDLGEYQRGENTDNDHALDNRDVIEGFLQQAMEEPGEFSTTLNQLRELAN
Kd [4]: 500000 nM

Source: PMC3790809 (2013)
